B1: Bacteriorhodopsin, P02945 (parent)
chain: MLELLPTAVEGVSQAQITGRPEWIWLALGTALMGLGTLYFLVKGMGVSDPDAKKFYAITTLVPAIAFTMYLSMLLGYGLTMVPFGGEQNPIYWARYADWLFTTPLLLLDLALLVDADQGTILALVGADGIMIGTGLVGALTKVYSYRFVWWAISTAAMLYILYVLFFGFTSKAESMRPEVASTFKVLRNVTVVLWSAYPVVWLIGSEGAGIVPLNIETLLFMVLDVSAKVGFGLILLRSRAIFGEAEAPEPSAGDGAAATSD

Variants of: B1
Details: Halobacterium salinarum (strain ATCC 700922 / JCM 11081 / NRC-1); pH 6; 25 °C; SDS; Absorbance; sodium phosphate 10 mM; reversible: yes (90%); structure 2BRD; whole UniProt chain shown

Row | Variant | ddG of mutation (higher = less stable)
1 | P50A | 0.2 kcal/mol
2 | S72A | -0.1 kcal/mol
3 | I65A | 1.4 kcal/mol
4 | F67A | 1 kcal/mol
5 | K54A | 1.6 kcal/mol
6 | L74A | -0.7 kcal/mol
7 | V62A | -0.7 kcal/mol
8 | M69A | -1.4 kcal/mol
9 | T68A | 0.1 kcal/mol
10 | L75A | -0.5 kcal/mol
11 | L71A | -0.3 kcal/mol
12 | M73A | 0.8 kcal/mol
13 | K53A | 0.3 kcal/mol
14 | D51A | 0.5 kcal/mol
15 | D49A | 0.9 kcal/mol
16 | Y56A | 1.3 kcal/mol
17 | T59A | 2.2 kcal/mol
18 | T60A | 1 kcal/mol
19 | I58A | 1.9 kcal/mol
20 | P63A | -0.1 kcal/mol
21 | L61A | 0.1 kcal/mol
22 | F55A | 1.6 kcal/mol

Source: FireProtDB (doi:10.1016/j.jmb.2003.10.041)
